PMC10346447

Biological target: AvrLm10B_like2‐RFP (Leptosphaeria maculans 'brassicae')
Experiment: FRET or BRET

FRET efficiency E: 32.1%
donor (GFP) mean fluorescence lifetime τ with the acceptor: 1.89 ns
Substance: AvrLm10A_like2‐GFP (natural protein)
